{"source": "paper PMC11415702", "target": "Complement factor H (CFH) (human, UniProt P08603 19-1231)", "sequence (P08603 19-1231)": "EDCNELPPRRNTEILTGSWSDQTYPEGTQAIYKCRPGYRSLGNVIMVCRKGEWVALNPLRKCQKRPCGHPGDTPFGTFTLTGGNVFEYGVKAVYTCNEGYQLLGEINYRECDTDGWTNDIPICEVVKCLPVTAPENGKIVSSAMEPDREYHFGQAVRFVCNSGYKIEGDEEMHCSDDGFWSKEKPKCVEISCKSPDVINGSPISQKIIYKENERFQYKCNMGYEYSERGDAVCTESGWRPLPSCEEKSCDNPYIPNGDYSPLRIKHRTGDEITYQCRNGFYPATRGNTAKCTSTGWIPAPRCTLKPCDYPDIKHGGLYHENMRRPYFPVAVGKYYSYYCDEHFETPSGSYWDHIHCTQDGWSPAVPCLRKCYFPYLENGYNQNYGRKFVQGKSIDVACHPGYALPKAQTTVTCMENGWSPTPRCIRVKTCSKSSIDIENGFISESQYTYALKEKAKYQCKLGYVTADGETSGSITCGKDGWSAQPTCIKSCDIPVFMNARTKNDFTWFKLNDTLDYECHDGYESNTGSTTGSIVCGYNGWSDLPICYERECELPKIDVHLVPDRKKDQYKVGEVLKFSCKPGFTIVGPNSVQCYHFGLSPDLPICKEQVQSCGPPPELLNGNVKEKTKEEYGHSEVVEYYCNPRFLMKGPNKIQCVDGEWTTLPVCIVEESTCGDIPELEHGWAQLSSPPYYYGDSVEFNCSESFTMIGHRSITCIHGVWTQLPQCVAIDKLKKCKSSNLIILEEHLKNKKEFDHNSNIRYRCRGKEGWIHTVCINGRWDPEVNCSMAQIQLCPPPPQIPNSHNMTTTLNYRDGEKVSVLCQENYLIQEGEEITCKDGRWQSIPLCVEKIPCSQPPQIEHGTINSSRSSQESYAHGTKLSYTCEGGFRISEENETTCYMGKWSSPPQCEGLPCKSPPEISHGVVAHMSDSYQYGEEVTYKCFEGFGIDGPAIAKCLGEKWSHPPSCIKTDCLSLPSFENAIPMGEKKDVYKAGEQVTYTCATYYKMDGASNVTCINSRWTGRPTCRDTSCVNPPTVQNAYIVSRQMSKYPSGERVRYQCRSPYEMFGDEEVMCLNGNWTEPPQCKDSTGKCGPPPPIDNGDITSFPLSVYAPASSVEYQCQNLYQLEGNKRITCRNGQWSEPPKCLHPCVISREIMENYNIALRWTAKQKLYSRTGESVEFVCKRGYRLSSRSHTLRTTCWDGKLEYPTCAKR", "test": "interdigitated electrode current-volt sandwich assay"}
{"binder": "GCGGAGCGTGGCAGG (ssDNA, biotin (end not stated))", "note": "[anti-tau DNA aptamer]", "values": [{"measurement": "binding result", "result": "no binding"}]}
